± gives the uncertainty stated by the source.
B1: Intersectin-1, residues 1156 to 1213; numbered along this chain, Q15811 (parent)
chain: AVCQVIGMYDYTAQNDDELAFNKGQIINVLNKEDPDWWKGEVNGQVGLFPSNYVKLTT

Variants of: B1
Assay: abundance fitness (aPCA) (normalised: wild type 0, dead -1); higher = more abundant; growth selection in yeast, the domain comes from the species named
Conditions: Homo sapiens

Point of comparison: AVCQVIGMYDYTAQNDDELAFNKGQIINVLNKEDPDWWKGEVNYQVGLFPSNYVKLTT, abundance fitness -0.734 ± 0.22. Against it:
- AVCQVIGMYDYTAQNDDELAFNKGQIINVLNKEDPDWWKGEVFGQVGLFPSNYVKLTT — within error, -0.799 ± 0.24
- AVCQVIGMYDYTAQNDDELAFNKGQIINVLNKEDPDWWKGEVIGQVGLFPSNYVKLTT — within error, -0.93 ± 0.2
- AVCQVIGMYDYTAQNDDELAFNKGQIINVLNKEDPDWWKGEVLGQVGLFPSNYVKLTT — within error, -0.412 ± 0.11
- AVCQVIGMYDYTAQNDDELAFNKGQIINVLNKEDPDWWKGEVGGQVGLFPSNYVKLTT — higher, -0.241 ± 0.084
- AVCQVIGMYDYTAQNDDELAFNKGQIINVLNKEDPDWWKGEVAGQVGLFPSNYVKLTT — higher, -0.263 ± 0.1
- AVCQVIGMYDYTAQNDDELAFNKGQIINVLNKEDPDWWKGEVDGQVGLFPSNYVKLTT — higher, -0.03 ± 0.14
- AVCQVIGMYDYTAQNDDELAFNKGQIINVLNKEDPDWWKGEVCGQVGLFPSNYVKLTT — within error, -0.541 ± 0.16
- AVCQVIGMYDYTAQNDDELAFNKGQIINVLNKEDPDWWKGEVKGQVGLFPSNYVKLTT — within error, -0.411 ± 0.14
- AVCQVIGMYDYTAQNDDELAFNKGQIINVLNKEDPDWWKGEVVGQVGLFPSNYVKLTT — within error, -0.794 ± 0.12
- AVCQVIGMYDYTAQNDDELAFNKGQIINVLNKEDPDWWKGEVQGQVGLFPSNYVKLTT — higher, -0.36 ± 0.15
- AVCQVIGMYDYTAQNDDELAFNKGQIINVLNKEDPDWWKGEVHGQVGLFPSNYVKLTT — higher, -0.08 ± 0.18
- AVCQVIGMYDYTAQNDDELAFNKGQIINVLNKEDPDWWKGEVNQQVGLFPSNYVKLTT — within error, -0.613 ± 0.14
- AVCQVIGMYDYTAQNDDELAFNKGQIINVLNKEDPDWWKGEVNWQVGLFPSNYVKLTT — within error, -0.832 ± 0.15
- AVCQVIGMYDYTAQNDDELAFNKGQIINVLNKEDPDWWKGEVNAQVGLFPSNYVKLTT — within error, -0.56 ± 0.11
- AVCQVIGMYDYTAQNDDELAFNKGQIINVLNKEDPDWWKGEVNNQVGLFPSNYVKLTT — higher, -0.219 ± 0.19
- AVCQVIGMYDYTAQNDDELAFNKGQIINVLNKEDPDWWKGEVNMQVGLFPSNYVKLTT — within error, -0.88 ± 0.17
- AVCQVIGMYDYTAQNDDELAFNKGQIINVLNKEDPDWWKGEVNIQVGLFPSNYVKLTT — within error, -0.797 ± 0.21
- AVCQVIGMYDYTAQNDDELAFNKGQIINVLNKEDPDWWKGEVNLQVGLFPSNYVKLTT — within error, -0.879 ± 0.13
- AVCQVIGMYDYTAQNDDELAFNKGQIINVLNKEDPDWWKGEVNSQVGLFPSNYVKLTT — within error, -0.677 ± 0.1
- AVCQVIGMYDYTAQNDDELAFNKGQIINVLNKEDPDWWKGEVNDQVGLFPSNYVKLTT — within error, -0.397 ± 0.12
- AVCQVIGMYDYTAQNDDELAFNKGQIINVLNKEDPDWWKGEVNEQVGLFPSNYVKLTT — within error, -0.911 ± 0.17
- AVCQVIGMYDYTAQNDDELAFNKGQIINVLNKEDPDWWKGEVNHQVGLFPSNYVKLTT — within error, -0.658 ± 0.23
- AVCQVIGMYDYTAQNDDELAFNKGQIINVLNKEDPDWWKGEVNCQVGLFPSNYVKLTT — within error, -0.682 ± 0.15
- AVCQVIGMYDYTAQNDDELAFNKGQIINVLNKEDPDWWKGEVNKQVGLFPSNYVKLTT — within error, -0.981 ± 0.25
- AVCQVIGMYDYTAQNDDELAFNKGQIINVLNKEDPDWWKGEVNRQVGLFPSNYVKLTT — within error, -0.83 ± 0.1
- AVCQVIGMYDYTAQNDDELAFNKGQIINVLNKEDPDWWKGEVNTQVGLFPSNYVKLTT — within error, -0.92 ± 0.18
- AVCQVIGMYDYTAQNDDELAFNKGQIINVLNKEDPDWWKGEVNPQVGLFPSNYVKLTT — within error, -0.806 ± 0.17
- AVCQVIGMYDYTAQNDDELAFNKGQIINVLNKEDPDWWKGEVNGQRGLFPSNYVKLTT — higher, -0.375 ± 0.09
- AVCQVIGMYDYTAQNDDELAFNKGQIINVLNKEDPDWWKGEVNGQIGLFPSNYVKLTT — higher, -0.006 ± 0.13
- AVCQVIGMYDYTAQNDDELAFNKGQIINVLNKEDPDWWKGEVNGQQGLFPSNYVKLTT — higher, -0.242 ± 0.14
- AVCQVIGMYDYTAQNDDELAFNKGQIINVLNKEDPDWWKGEVNGQSGLFPSNYVKLTT — higher, -0.296 ± 0.09
- AVCQVIGMYDYTAQNDDELAFNKGQIINVLNKEDPDWWKGEVNGQLGLFPSNYVKLTT — within error, -0.499 ± 0.11
- AVCQVIGMYDYTAQNDDELAFNKGQIINVLNKEDPDWWKGEVNGQFGLFPSNYVKLTT — within error, -0.463 ± 0.19
- AVCQVIGMYDYTAQNDDELAFNKGQIINVLNKEDPDWWKGEVNGQEGLFPSNYVKLTT — within error, -0.412 ± 0.13
- AVCQVIGMYDYTAQNDDELAFNKGQIINVLNKEDPDWWKGEVNGQTGLFPSNYVKLTT — higher, -0.337 ± 0.12
- AVCQVIGMYDYTAQNDDELAFNKGQIINVLNKEDPDWWKGEVNGQGGLFPSNYVKLTT — within error, -0.712 ± 0.093
- AVCQVIGMYDYTAQNDDELAFNKGQIINVLNKEDPDWWKGEVNGQCGLFPSNYVKLTT — within error, -0.503 ± 0.12
- AVCQVIGMYDYTAQNDDELAFNKGQIINVLNKEDPDWWKGEVNGQMGLFPSNYVKLTT — within error, -0.396 ± 0.18
- AVCQVIGMYDYTAQNDDELAFNKGQIINVLNKEDPDWWKGEVNGQNGLFPSNYVKLTT — within error, -0.703 ± 0.29
- AVCQVIGMYDYTAQNDDELAFNKGQIINVLNKEDPDWWKGEVNGQYGLFPSNYVKLTT — higher, -0.34 ± 0.17
- AVCQVIGMYDYTAQNDDELAFNKGQIINVLNKEDPDWWKGEVNGQKGLFPSNYVKLTT — higher, -0.306 ± 0.13
- AVCQVIGMYDYTAQNDDELAFNKGQIINVLNKEDPDWWKGEVNGQAGLFPSNYVKLTT — within error, -0.505 ± 0.091
- AVCQVIGMYDYTAQNDDELAFNKGQIINVLNKEDPDWWKGEVNGQWGLFPSNYVKLTT — within error, -0.892 ± 0.19
- AVCQVIGMYDYTAQNDDELAFNKGQIINVLNKEDPDWWKGEVNGQDGLFPSNYVKLTT — within error, -0.668 ± 0.16
- AVCQVIGMYDYTAQNDDELAFNKGQIINVLNKEDPDWWKGEVNGQHGLFPSNYVKLTT — within error, -0.562 ± 0.26
